These results are taken from patent US5624894A, “Brain-enhanced delivery of neuroactive peptides by sequential metabolism” (University of Florida, priority 1995, dated 1997).

Square brackets hold non-standard residues; d marks the D form. Ends that are not written are not given here.

A short description of data set [1]: Detection of peptide conjugates in rat brain tissue and blood by electrospray ionization MS after i.v. compound (A). The data set is classed as in vivo. As to conditions: 15 minutes after i.v. compound (A) for [D-Ala2]-Leu-enkephalin, 20 mg/kg, rats; estimated. From the text: This approach has been evaluated by using electrospray ionization mass spectrometry, which provides the specificity necessary to monitor the biotransformation processes that occur after delivery. In vivo distribution studies with rats as experimental models (described in detail below) have shown that, upon systemic administration, the modified peptide can partition by passive, nonsaturable transport into the brain which is inaccessible to the unmanipulated compound. At this first step, the modified peptide simply enters the brain because of its lipoidal nature. The targetor moiety, however, undergoes an enzyme-mediated oxidation analogous to the endogenous NAD(P)H.revreaction.NAD(P)^+ coenzyme associated with numerous oxidoreductases and cellular respiration. […]
Detection of the peptide conjugates in the brain tissue by electrospray ionization mass spectrometry was carried out after systemic administration of compound (A). […] The solvent was removed under a dry nitrogen stream, and the reconstituted (in 50% methanol plus 50% water containing 3% acetic acid) sample was analyzed by electrospray ionization mass spectrometry at 5 μl/minute flow rate. […] Quantification was based on comparing the peak intensity to that obtained from the brain sample of an untreated animal spiked with a known amount of compound (C).

Data set [2] deals with brain peptidases (rat brain homogenate). Kind of data set: Incubation of targetor-peptide conjugate in rat brain homogenate. As to conditions: 30 nmol in 1 ml 20% rat brain homogenate, pH 7.4 Tris, 37° C., 0.5 and 2 hours. The data set is classed as in vitro ADME. How it is done: Compound (C) (30 nmol) was added to one ml rat brain homogenate (20%, w/w, in pH 7.4 Tris buffer), and the mixture was incubated at 37° C. Aliquots (250 t l) were removed 0.5 and 2 hours after incubation, and electrospray ionization mass spectra were obtained after sample preparation identical to that described above. Proteolytic cleavages are identified by the m/z of the products, and the corresponding structures are shown in the Scheme.

Data set [3] can be described thus: Stability and water solubility observed during synthesis. The data set is classed as physicochemical. Conditions: reaction work-up. How it is done:
In all cases before the N-alkylation step, the intermediates were purified by chromatography. In order to avoid side reactions, the N-methylations were performed at room temperature (20°-25° C.) with a slight excess of alkylating agent. The reductions with sodium dithionite were accomplished by cooling at 0°-5° C. in oxygen-free conditions at a pH of approximately 7. The quaternary salts are fairly stable when isolated, but the dihydropyridine derivatives are easily oxidized or hydroxylated and in acid conditions react readily with water.
Trigonellyl-Ala-Tyr-Arg-cholesteryl ester methylsulfate (0.09 g, […]) (30) was dissolved in 20 ml of H2 O, then NaHCO3 (0.05 g, […]) and Na2 S2 O4 (0.07 g, 0.04 mmol) were added in small portions while stirring at 0° C. The reaction vessel was stoppered under nitrogen and allowed to stir for 1.5 hours at 0° C. […] The extraction was repeated 3 times, the organic layers were combined and the solvent was removed in vacuo, to afford 0.056 g of compound (31), yield 62.2%.

As to “Compound (C): locked-in targetor-peptide conjugate (m/z 760) of [D-Ala2]-Leu-enkephalin, formed from compound (B) by cleavage of the cholesteryl ester ({N‑methylnicotinoyl}-AY[dA]GFL; not fully specified)”, in data set [1], the “level in brain tissue” value is on record as 500-700 picomole/g tissue. Also, the “processing in rat brain homogenate (in words)” value in data set [2] is on record as “processed by the brain peptidases similarly to the unmanipulated compound”.

For the compound `CC(C)CCC[C@@H](C)[C@H]1CC[C@H]2[C@@H]3CC=C4C[C@@H](OC(=O)[C@H](CCCNC(=N)N)NC(=O)[C@H](Cc5ccc(O)cc5)NC(=O)[C@H](C)NC(=O)C5=CN(C)C=CC5)CC[C@]4(C)[C@H]3CC[C@]12C` [(31), 1,4-Dihydrotrigonellyl-Ala-Tyr-Arg-Cholesteryl Ester], the “solubility in water (in words)” value in data set [3] is “not soluble in water”.
